In this experiment the target is human hCTLA4-RFP protein on 293 cells (human) (UniProt P16410). As to the kind of experiment: flow cytometry of cell conjugates; 293-hCTLA4-RFP cells with 100 nM antibody, then five times as many 293-B7-1-GFP cells (B7-1 is the ligand tested for blocking); lower right quadrant (RFP+GFP-) 6.13.
human hCTLA4-RFP protein on 293 cells (human), sequence (P16410 36-223): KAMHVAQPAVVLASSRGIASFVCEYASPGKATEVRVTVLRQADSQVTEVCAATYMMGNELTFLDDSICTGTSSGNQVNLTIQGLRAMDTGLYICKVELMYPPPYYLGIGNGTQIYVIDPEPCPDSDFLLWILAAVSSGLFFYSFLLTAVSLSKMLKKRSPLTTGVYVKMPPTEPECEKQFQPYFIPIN

In turn, hIgG1 (antibody) gave a % RFP+GFP+ events (upper right quadrant) of 26.5%.
